From patent US20240400614A1, “CLEAVABLE PEPTIDES AND METHODS OF USE THEREOF” (Bright Peak Therapeutics AG, priority 2023, published 2024)
Square brackets hold non-standard residues; d marks the D form. Ends that are not written are not given here. Tyr(3-NO2) = N[C@@H](Cc1ccc(O)c([N+](=O)[O-])c1)C(=O)O; Nle = CCCC[C@H](N)C(=O)O; 2Abz = Nc1ccccc1C(=O)O

Columns and labels:
Assay type in all cases: biochemical
uPA = uPA (Homo sapiens, UniProt P00749); experiment: FRET peptide cleavage efficiency with uPA
matriptase = target: T1, matriptase (Homo sapiens, UniProt Q9Y5Y6); experiment: FRET peptide cleavage efficiency with matriptase
T1 construct: purchased R&D Systems 3946-SEB
T1 sequence (Q9Y5Y6 615-855 limits assumed): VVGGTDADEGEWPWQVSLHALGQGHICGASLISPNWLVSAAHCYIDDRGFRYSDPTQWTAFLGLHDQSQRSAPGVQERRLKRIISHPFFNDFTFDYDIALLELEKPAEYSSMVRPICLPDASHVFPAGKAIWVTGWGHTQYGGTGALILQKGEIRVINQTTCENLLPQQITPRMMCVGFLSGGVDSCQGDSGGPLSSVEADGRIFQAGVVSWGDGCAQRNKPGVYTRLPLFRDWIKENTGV

MMP-2 = target: T2, MMP-2 (Homo sapiens, UniProt P08253); experiment: FRET peptide cleavage efficiency with MMP-2
T2 construct: purchased SIGMA PF023
T2 sequence (P08253 110-660): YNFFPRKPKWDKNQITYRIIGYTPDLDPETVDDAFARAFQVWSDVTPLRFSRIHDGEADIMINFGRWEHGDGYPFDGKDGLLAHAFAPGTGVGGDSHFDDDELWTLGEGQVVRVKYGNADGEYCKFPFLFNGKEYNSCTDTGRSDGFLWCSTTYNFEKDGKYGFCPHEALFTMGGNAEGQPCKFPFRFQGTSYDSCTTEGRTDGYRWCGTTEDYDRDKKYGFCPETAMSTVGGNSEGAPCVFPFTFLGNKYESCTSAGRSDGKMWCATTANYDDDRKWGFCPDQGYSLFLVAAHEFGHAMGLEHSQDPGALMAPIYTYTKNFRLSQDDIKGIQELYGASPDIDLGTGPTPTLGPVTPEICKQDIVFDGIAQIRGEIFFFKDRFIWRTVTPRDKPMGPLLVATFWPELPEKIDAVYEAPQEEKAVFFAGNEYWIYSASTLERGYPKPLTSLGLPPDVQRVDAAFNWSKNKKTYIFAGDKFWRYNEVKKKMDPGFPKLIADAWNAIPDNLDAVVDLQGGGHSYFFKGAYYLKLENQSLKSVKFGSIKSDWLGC

MMP-7 = target: T3, MMP-7 (Homo sapiens, UniProt P09237); experiment: FRET peptide cleavage efficiency with MMP-7 (standard pH 7.5; also pH 6.5)
T3 construct: purchased SIGMA CC1059
T3 sequence (P09237 95-267): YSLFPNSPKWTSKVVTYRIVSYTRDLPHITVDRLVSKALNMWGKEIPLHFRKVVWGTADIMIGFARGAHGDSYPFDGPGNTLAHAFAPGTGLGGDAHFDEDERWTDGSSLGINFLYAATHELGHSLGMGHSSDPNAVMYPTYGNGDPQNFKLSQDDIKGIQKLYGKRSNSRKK

MMP-9 = target: T4, MMP-9 (Homo sapiens, UniProt P14780); experiment: FRET peptide cleavage efficiency with MMP-9 (standard pH 7.5; also pH 6.5)
T4 construct: purchased SIGMA PF024
T4 sequence (P14780 94-707): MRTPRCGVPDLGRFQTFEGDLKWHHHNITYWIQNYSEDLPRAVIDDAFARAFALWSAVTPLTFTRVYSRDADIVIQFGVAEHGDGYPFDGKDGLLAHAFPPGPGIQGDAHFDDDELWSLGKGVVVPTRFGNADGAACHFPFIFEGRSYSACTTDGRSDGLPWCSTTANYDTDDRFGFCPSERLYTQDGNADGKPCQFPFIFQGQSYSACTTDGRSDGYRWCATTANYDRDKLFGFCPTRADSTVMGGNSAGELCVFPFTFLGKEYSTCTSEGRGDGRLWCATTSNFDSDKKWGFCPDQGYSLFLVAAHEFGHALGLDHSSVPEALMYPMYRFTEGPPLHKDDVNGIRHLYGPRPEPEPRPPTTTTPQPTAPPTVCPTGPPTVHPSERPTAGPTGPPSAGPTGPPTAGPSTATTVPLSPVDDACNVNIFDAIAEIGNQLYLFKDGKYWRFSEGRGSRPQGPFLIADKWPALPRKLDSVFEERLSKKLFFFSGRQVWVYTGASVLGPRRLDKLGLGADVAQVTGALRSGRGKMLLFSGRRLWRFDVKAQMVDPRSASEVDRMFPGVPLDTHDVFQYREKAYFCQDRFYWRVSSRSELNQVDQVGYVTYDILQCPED

[1] = t = 15 min, 200 uM linker, 1 ug/ml protease, 37° C., buffer A pH 8.5
[2] = t = 60 min, 200 uM linker, 1 ug/ml protease, 37° C., buffer A pH 8.5
[3] = t = 120 min, 200 uM linker, 1 ug/ml protease, 37° C., buffer A pH 8.5
[4] = t = 15 min, 200 uM linker, 1 ug/ml protease, 37° C., buffer B pH 9.0
[5] = t = 60 min, 200 uM linker, 1 ug/ml protease, 37° C., buffer B pH 9.0
[6] = 200 uM linker, 1 ug/ml protease, 37° C., buffer B pH 9.0
[7] = t = 15 min, 200 uM linker, 1 ug/ml protease, 37° C., buffer C pH 7.5
[8] = t = 60 min, 200 uM linker, 1 ug/ml protease, 37° C., buffer C pH 7.5
[9] = t = 120 min, 200 uM linker, 1 ug/ml protease, 37° C., buffer C pH 7.5
[10] = t = 15 min, standard conditions (Table 8)
[11] = t = 60 min, standard conditions (Table 8)
[12] = t = 120 min, standard conditions (Table 8)

| Substance | % cleavage uPA t = 15 min (uPA; [1]) | % cleavage uPA t = 60 min (uPA; [2]) | % cleavage uPA t = 120 min (uPA; [3]) | % cleavage Matriptase t = 15 min (matriptase; [4]) | % cleavage Matriptase t = 60 min (matriptase; [5]) | % cleavage Matriptase t = 120 min (matriptase; [6]) | % cleavage MMP-2 t = 15 min (MMP-2; t = 15 min (Table 9)) | % cleavage MMP-2 t = 15 min (MMP-2; [7]) | % cleavage MMP-2 t = 60 min (MMP-2; t = 60 min (Table 9)) | % cleavage MMP-2 t = 60 min (MMP-2; [8]) | % cleavage MMP-2 t = 120 min (MMP-2; t = 120 min (Table 9)) | % cleavage MMP-2 t = 120 min (MMP-2; [9]) | % cleavage MMP-7 t = 15 min (MMP-7; t = 15 min (Table 9)) | % cleavage MMP-7 t = 60 min (MMP-7; t = 60 min (Table 9)) | % cleavage MMP-7 t = 120 min (MMP-7; t = 120 min (Table 9)) | % cleavage MMP-9 t = 15 min (MMP-9; t = 15 min (Table 9)) | % cleavage MMP-9 t = 60 min (MMP-9; t = 60 min (Table 9)) | % cleavage MMP-9 t = 120 min (MMP-9; t = 120 min (Table 9)) | further results |
| --- | --- | --- | --- | --- | --- | --- | --- | --- | --- | --- | --- | --- | --- | --- | --- | --- | --- | --- | --- |
| SGRVANYFGKL ([2Abz]SGRVANYFGKL[Tyr(3-NO2)]-NH2) [LNK054] | 33% | 100% | 100% | 0% | 0% | 0% | 78% | 78% | 100% | 100% | 100% | 100% | 0% | 0% | 0% | 49% | 100% | 100% |  |
| SGRVAGLVG ([2Abz]SGRVAGLVG[Tyr(3-NO2)]-NH2) [LNK016] | 2% | 6% | 12% | 22% | 70% | 92% | 72% | 85% | 100% | 99% | 100% | 99% | 11% | 43% | 70% | 10% | 43% | 67% | % cleavage uPA t = 60 min (uPA; pH 6.5, t = 60 min (Table 7)): 0%; % cleavage uPA t = 120 min (uPA; pH 6.5, t = 120 min (Table 7)): 0%; % cleavage uPA t = 60 min (uPA; pH 7.5, t = 60 min (Table 7)): 4%; % cleavage uPA t = 120 min (uPA; pH 7.5, t = 120 min (Table 7)): 10%; % cleavage Matriptase t = 15 min (matriptase; pH 6.5, t = 15 min (Table 7)): 8%; % cleavage Matriptase t = 60 min (matriptase; pH 6.5, t = 60 min (Table 7)): 24%; % cleavage Matriptase t = 15 min (matriptase; pH 7.5, t = 15 min (Table 7)): 17%; % cleavage Matriptase t = 60 min (matriptase; pH 7.5, t = 60 min (Table 7)): 54%; % cleavage MMP-2 t = 15 min (MMP-2; pH 6.5, t = 15 min (Table 7)): 84%; % cleavage MMP-2 t = 60 min (MMP-2; pH 6.5, t = 60 min (Table 7)): 100%; % cleavage MMP-2 t = 15 min (MMP-2; pH 7.5, t = 15 min (Table 7)): 87%; % cleavage MMP-2 t = 60 min (MMP-2; pH 7.5, t = 60 min (Table 7)): 100% |
| SGRVAPY-Nle-LQG ([2Abz]SGRVAPY[Nle]LQG[Tyr(3-NO2)]-NH2) [LNK043] |  |  |  |  |  |  | 34% |  | 78% |  | 91% |  | 61% | 100% | 100% | 32% | 93% | 100% | % vcleavage uPA t = 15 min (uPA; [10]): 0%; % cleavage uPA t = 60 min (uPA; [11]): 0%; % cleavage uPA t = 120 min (uPA; [12]): 0%; % cleavage Matriptase t = 15 min (matriptase; [10]): 24%; % cleavage Matriptase t = 60 min (matriptase; [11]): 73%; % cleavage Matriptase t = 120 min (matriptase; standard conditions (Table 8)): 100%; % cleavage MMP-2 t = 60 min (MMP-2; [11]): 78%; % cleavage MMP-2 t = 120 min (MMP-2; [12]): 91%; % cleavage MMP-7 t = 15 min (MMP-7; [10]): 61%; % cleavage MMP-7 t = 60 min (MMP-7; [11]): 100%; % cleavage MMP-7 t = 120 min (MMP-7; [12]): 100%; % cleavage MMP-9 t = 15 min (MMP-9; [10]): 32%; % cleavage MMP-9 t = 60 min (MMP-9; [11]): 93%; % cleavage MMP-9 t = 120 min (MMP-9; [12]): 100% |
